How the values were obtained:
[1] = system: peripheral blood mononuclear cells (PBMC); assay: RESTORE cytokine release assay in absence of TCR stimulation; type: cell-based, human; parameters: IFNγ: unit not given beside the values
Procedure: The ability of variant CD80-Fc fusion proteins to promote cytokine release in the absence of TCR stimulation was assessed in the RESTORE (RESetting T cells to Original Reactivity) assay (Römer et al, Blood, 2011). Freshly isolated peripheral blood mononuclear cells (PBMC) from whole blood of several healthy donors were cultured for 48 hours at […] within RPMI1640 media supplemented with 10% autologous plasma, 10 mM HEPES, 1× GlutaMAX, 1× PenStrep, beta2-mercaptoethanol, NEAA and sodium pyruvate. Following the 48-hour incubation, PBMC were pelleted and resuspended at a final concentration of 10^6/ml with indicated soluble drug. Treatment was allowed for 48 hours then supernatant was harvested and assessed in IL-2 and IFNγ ELISA according to manufacturer's protocol (BioLegend).
Positive controls included CD28 superagonist anti-CD28 clone TGN1412 as IgG1 and IgG4 isotypes and anti-CD3. […] Values shown are the average of 3 technical replicates. D=Donor.

[2] = system: CT26 murine colorectal carcinoma tumor cells; assay: CT26 murine colorectal carcinoma model; type: in vivo, mouse; conditions: for Day 10 tumor volume: Days 0 and 3; for % tumor growth inhibition: Day 10; for # IFNγ-producing spots (tumor-reactive T cells in spleen): average of n = 4 mice
Procedure: CT26 murine colorectal carcinoma tumor cells (1×10^6) were subcutaneously implanted in the hind flank of female Balb/c mice. When tumors reached ˜100 mm3 (Day 8), mice were randomized. PBS vehicle control or variant CD80-Fc fusion proteins were dosed intravenously at 0.1 and 1.0 mg/kg on Days 0 and 3. Tumor volume was determined by caliper measurements obtained in 2 dimensions and calculated as width^2×length/2. Error bars are depicted as ±SEM.
IFNγ ELIspot was used to measure tumor-reactive T cells in the spleen in mice treated with CD80-Fc fusion proteins at a 1 mg/kg dose.
Cytotoxic CD8^+ T cells are responsible for killing cancer cells and the measurement of CD8^+ T cells that have infiltrated tumors commonly correlates with efficacy for immune-oncology therapies. For all in vivo studies, tumors were collected ˜1 week after the first dose and dissociated by mincing, followed by incubation in an enzymatic digestion cocktail and homogenization. The resulting cell suspension was filtered and washed, and single cells were stained with antibodies to CD45, CD8, and a viability dye to detect tumor-infiltrating lymphocytes (TILs) by flow cytometry. Data were acquired on a BD LSRFortessa flow cytometer or a Cytek Aurora spectral flow cytometer. Table 31 and FIG. 18 show the amount of tumor-infiltrating CD8+ T cells expressed as a percentage of total immune cells (CD45+). Each value is the average of n=4 mice per group. Treatment with all variant CD80-Fc fusion proteins led to increase in CD8+ TILs in various tumor models.

[3] = Viscosity (Anton Paar rheometer); type: physicochemical; conditions: 20 mM histidine, 8.5% sucrose, pH 5.8
Procedure: The viscosity of CD80-Fc fusion proteins was assessed at various concentrations. Lower viscosity is desired for subcutaneous administration, and providing optimal syringeability and minimal pain to patients. Viscosity was measured using an Anton Paar rheometer and a CP-25 measuring system at 150 rpm. The sample comprised CD80-Fc fusion proteins in 20 mM histidine and 8.5% sucrose at pH 5.8.

[4] = Pharmacokinetics in huFcRn transgenic mice; conditions: 0.1 mg/kg IV
Procedure: PK of CD80-Fc fusion proteins was also assessed in transgenic mice expressing the human neonatal Fc receptor (huFcRn) a-chain transgene under the control of its natural human promoter. Female mice were dosed intravenously with CD80-Fc fusion proteins at 0.1 mg/kg, and blood was collected at the timepoints indicated on the graph. Levels of CD80-Fc in mouse plasma were measured as described above.

[5] = Pharmacokinetics in cynomolgus monkeys; type: in vivo; conditions: cynomolgus monkey
Procedure: PK of variant CD80-Fc fusion proteins was assessed in non-human primates. […] A ligand binding assay using the Gyrolab Immunoassay platform was used to quantitate CD80-Fc molecules in cynomolgus monkey serum following dose administration. CD80-Fc constructs were captured onto the Gyrolab Bioaffy CD using a biotinylated monoclonal anti-human CD80 antibody (Thermo Fisher Cat #13-0809-82). Bound CD80-Fc constructs were detected using a mouse anti-human Fc antibody (SouthernBiotech Cat #9040-01) that was labeled with Alexa Fluor 647. Sample concentrations were determined by interpolation from a calibration curve that were fit using a 5-parameter logistic regression model. The range of quantitation of the assay was 100-15000 ng/ml in 100% serum. […] AUC (Area Under the Curve); Cmax (Maximum Concentration observed); Tmax (Time of Maximum concentration observed)

CD80-D90Q-Fc: variant CD80 ECD (D90Q) fused to human IgG1 Fc
IFNγ ([1]; Table 20, D222, 1 μg/ml): 3.3
IFNγ ([1]; Table 20, D222, 10 μg/ml): 4.0
IL-2 ([1]; Table 20, D222, 10 μg/ml): 9.0
IFNγ ([1]; Table 20, D281, 1 μg/ml): 3.3
IL-2 ([1]; Table 20, D281, 1 μg/ml): 2.3
IFNγ ([1]; Table 20, D281, 10 μg/ml): 3.3
IL-2 ([1]; Table 20, D281, 10 μg/ml): 2.3
IFNγ ([1]; Table 20, D462, 1 μg/ml): 8.3
IL-2 ([1]; Table 20, D462, 1 μg/ml): 1.7
IFNγ ([1]; Table 20, D462, 10 μg/ml): 10.3
IL-2 ([1]; Table 20, D462, 10 μg/ml): 1.7
IFNγ ([1]; Table 20, D547, 1 μg/ml): 3.3
IL-2 ([1]; Table 20, D547, 1 μg/ml): 9.0
IFNγ ([1]; Table 20, D547, 10 μg/ml): 7.7
IL-2 ([1]; Table 20, D547, 10 μg/ml): 3.3
Number of tumor regressions ([2]; 0.1 mg/kg): 0/10
Day 10 tumor volume ([2]; 0.1 mg/kg IV): 728.3 mm^3
% tumor growth inhibition ([2]; 0.1 mg/kg): 39.20%
Number of tumor regressions ([2]; 1 mg/kg): 6/10
Day 10 tumor volume ([2]; 1 mg/kg IV): 295.8 mm^3
% tumor growth inhibition ([2]; 1 mg/kg): 75.31%
# IFNγ-producing spots (tumor-reactive T cells in spleen) ([2]; 1 mg/kg): 341.6875
CD8^+ T cell infiltrates (% CD45) ([2]; CT26, 1 mg/kg, n=4): 27.4 % CD45

CD80-K89D-D90K-T28V-T57V-Fc: non-cysteine stabilized variant CD80-Fc fusion protein (K89D, D90K, T28V, T57V)
Viscosity ([3]; 92.7 mg/ml): 12.1 cP
Viscosity ([3]; 119 mg/ml): 27.8 cP
IL-2 ([1]; Table 21, D132, 1.9 μg/ml): 0.0
IL-2 ([1]; Table 21, D132, 5.6 μg/ml): 0.3
IL-2 ([1]; Table 21, D132, 16.7 μg/ml): 0.7
IL-2 ([1]; Table 21, D132, 50 μg/ml): 3.7
IL-2 ([1]; Table 21, D149, 1.9 μg/ml): 0.0
IL-2 ([1]; Table 21, D149, 5.6 μg/ml): 0.0
IL-2 ([1]; Table 21, D149, 16.7 μg/ml): 3.7
IL-2 ([1]; Table 21, D149, 50 μg/ml): 0.3
IL-2 ([1]; Table 21, D379, 1.9 μg/ml): 2.3
IL-2 ([1]; Table 21, D379, 5.6 μg/ml): 0.0
IL-2 ([1]; Table 21, D379, 16.7 μg/ml): 0.0
IL-2 ([1]; Table 21, D379, 50 μg/ml): 0.0
IL-2 ([1]; Table 21, D399, 1.9 μg/ml): 0.0
IL-2 ([1]; Table 21, D399, 5.6 μg/ml): 0.0
IL-2 ([1]; Table 21, D399, 16.7 μg/ml): 0.0
IL-2 ([1]; Table 21, D399, 50 μg/ml): 0.0
IL-2 ([1]; Table 21, D417, 1.9 μg/ml): 0.0
IL-2 ([1]; Table 21, D417, 5.6 μg/ml): 0.0
IL-2 ([1]; Table 21, D417, 50 μg/ml): 0.0
IL-2 ([1]; Table 21, D518, 1.9 μg/ml): 1.3
IL-2 ([1]; Table 21, D518, 5.6 μg/ml): 0.3
IL-2 ([1]; Table 21, D518, 16.7 μg/ml): 0.0
IL-2 ([1]; Table 21, D518, 50 μg/ml): 3.0
IFNγ ([1]; Table 22, D132, 1.9 μg/ml): 0.0
IFNγ ([1]; Table 22, D132, 5.6 μg/ml): 0.0
IFNγ ([1]; Table 22, D132, 16.7 μg/ml): 41.3
IFNγ ([1]; Table 22, D132, 50 μg/ml): 0.0
IFNγ ([1]; Table 22, D149, 1.9 μg/ml): 0.0
IFNγ ([1]; Table 22, D149, 5.6 μg/ml): 0.0
IFNγ ([1]; Table 22, D149, 16.7 μg/ml): 0.0
IFNγ ([1]; Table 22, D149, 50 μg/ml): 12.3
IFNγ ([1]; Table 22, D379, 1.9 μg/ml): 2.0
IFNγ ([1]; Table 22, D379, 5.6 μg/ml): 0.0
IFNγ ([1]; Table 22, D379, 50 μg/ml): 0.0
IFNγ ([1]; Table 22, D399, 1.9 μg/ml): 0.0
IFNγ ([1]; Table 22, D399, 5.6 μg/ml): 0.0
IFNγ ([1]; Table 22, D399, 16.7 μg/ml): 0.0
IFNγ ([1]; Table 22, D399, 50 μg/ml): 13.7
IFNγ ([1]; Table 22, D417, 1.9 μg/ml): 0.0
IFNγ ([1]; Table 22, D417, 5.6 μg/ml): 94.3
IFNγ ([1]; Table 22, D417, 16.7 μg/ml): 0.0
IFNγ ([1]; Table 22, D417, 50 μg/ml): 0.0
IFNγ ([1]; Table 22, D518, 1.9 μg/ml): 0.0
IFNγ ([1]; Table 22, D518, 5.6 μg/ml): 0.0
IFNγ ([1]; Table 22, D518, 16.7 μg/ml): 0.0
IFNγ ([1]; Table 22, D518, 50 μg/ml): 0.0
AUC [4]: 147 µg·h/mL
CL [4]: 14 mL/day/kg
Vdss [4]: 0.082 L/kg
Cmax ([4]; average of 3 animals): 2.3 µg/mL

CD80-K89Q-D90Q-Fc: variant CD80 ECD (K89Q, D90Q) fused to human IgG1 Fc
Viscosity ([3]; 93.5 mg/ml): 32.8 cP
Viscosity ([3]; 120.6 mg/ml): 115.8 cP
AUC ([5]; 3 mpk IV): 1230 µg·h/mL
AUC fold-increase over WT ([5]; 3 mpk IV): 0.50
Cmax ([5]; 3 mpk IV): 89.4 µg/mL
Tmax ([5]; 3 mpk IV): 4.98 min
AUC ([5]; 15 mpk IV): 12100 µg·h/mL
AUC fold-increase over WT ([5]; 15 mpk IV): 0.87
Cmax ([5]; 15 mpk IV): 570 µg/mL
Tmax ([5]; 15 mpk IV): 4.98 min
AUC ([5]; 50 mpk IV): 27300 µg·h/mL
AUC fold-increase over WT ([5]; 50 mpk IV): 0.74
Cmax ([5]; 50 mpk IV): 1420 µg/mL
Tmax ([5]; 50 mpk IV): 4.98 min
IFNγ ([1]; Table 20, D222, 1 μg/ml): 3.7
IL-2 ([1]; Table 20, D222, 1 μg/ml): 4.3
IFNγ ([1]; Table 20, D222, 10 μg/ml): 4.0
IL-2 ([1]; Table 20, D222, 10 μg/ml): 4.0
IFNγ ([1]; Table 20, D281, 1 μg/ml): 3.3
IL-2 ([1]; Table 20, D281, 1 μg/ml): 2.3
IFNγ ([1]; Table 20, D281, 10 μg/ml): 6.7
IFNγ ([1]; Table 20, D462, 1 μg/ml): 7.0
IFNγ ([1]; Table 20, D462, 10 μg/ml): 15.0
IL-2 ([1]; Table 20, D462, 10 μg/ml): 1.7
IFNγ ([1]; Table 20, D547, 1 μg/ml): 4.0
IL-2 ([1]; Table 20, D547, 1 μg/ml): 6.3
IFNγ ([1]; Table 20, D547, 10 μg/ml): 8.0
IL-2 ([1]; Table 20, D547, 10 μg/ml): 3.3
Number of tumor regressions ([2]; 0.1 mg/kg): 1/10
Day 10 tumor volume ([2]; 0.1 mg/kg IV): 857.6 mm^3
% tumor growth inhibition ([2]; 0.1 mg/kg): 28.41%
Number of tumor regressions ([2]; 1 mg/kg): 5/10
Day 10 tumor volume ([2]; 1 mg/kg IV): 299.0 mm^3
% tumor growth inhibition ([2]; 1 mg/kg): 75.04%
# IFNγ-producing spots (tumor-reactive T cells in spleen) ([2]; 1 mg/kg): 569.5

From US20240209061A1, “FUSION PROTEINS AND USES THEREOF” (Pfizer Inc., priority 2020, published 2024)
